We go through four molecules from article PMC7021899, “N-terminal domain of the architectural protein CTCF has similar structural organization and ability to self-association in bilaterian organisms” (Scientific Reports, 2020).

Data set [1] has as its target Thioredoxin-tagged N-terminal domain of Drosophila virilis CTCF (1-144 aa) (Drosophila virilis). Briefly: cross-linking; Thioredoxin-tagged NTDs, increasing concentrations of glutaraldehyde.
Data set [2] has as its target N-terminal domain of Drosophila virilis CTCF (1-144 aa), without Thioredoxin (Drosophila virilis). Briefly: SAXS; BM29 BioSAXS beamline (ESRF), 277 K, at least two concentrations; molecular mass from extrapolated I0 and protein standards.
Data set [3] deals with the molecule itself. The experiment in a line: cross-linking; Thioredoxin-tagged NTDs, increasing concentrations of glutaraldehyde.
Data set [4] deals with the molecule itself. Briefly: SAXS; BM29 BioSAXS beamline (ESRF), 277 K, at least two concentrations; molecular mass from extrapolated I0 and protein standards.

What is called stoichiometry N is the number of molecules, sites or subunits per partner or assembly. “Thioredoxin-tagged N-terminal domain of Drosophila virilis CTCF (1-144 aa) (domain or fragment)” registered a stoichiometry N in data set [1] of 2.

On to “N-terminal domain of Drosophila virilis CTCF (1-144 aa), without Thioredoxin (domain or fragment)”, for which, in data set [2], the stoichiometry N is 2.

B1: Thioredoxin-tagged N-terminal domain of Drosophila melanogaster CTCF (1-163 aa) (domain or fragment, UniProt Q9VS55 1-163, looked up)
chain: MPRRTKKDEDPEDLQTFLNNFHKEIEGNSDEKVVNTILEAISAEAIDLDENGAEAGGSKPMEEAEADLDHAEEAEEEEEDDEDKYFIDDEGNCYIKTTPKKQKELQKKLKQAAAKPGKATRSVVSTATNKSINLRPAKSTPKATTSKPPPEPKAISVRPARAA
notes: CTCF, Drosophila melanogaster, N-terminal domain, residues 1-163; also called dmCTCF NTD; Thioredoxin-tagged Drosophila CTCF NTD
Regarding B1, in data set [3], the “stoichiometry N” value was 2.

B2: N-terminal domain of Drosophila melanogaster CTCF (1-163 aa), without Thioredoxin (domain or fragment, UniProt Q9VS55 1-163, looked up)
chain: B1 chain
notes: Modified pET32a(+) with TEV-cleavable Thioredoxin-6xHis-tag. 'Without Thioredoxin' is said for SEC; for SAXS and DLS the tag state is inferred from the printed monomer mass (18 kDa); also called dmCTCF NTD; dmCTCF-NTD
Regarding B2, the “stoichiometry N” value in data set [4] was 4.
